Patent publication US20230257716A1 (priority 2020, published 2023)

B1: WNT3A: exogenous WNT growth factor (R&D) (protein, UniProt P56704 19-352, looked up)
Protein Wnt-3a: SYPIWWSLAVGPQYSSLGSQPILCASIPGLVPKQLRFCRNYVEIMPSVAEGIKIGIQECQHQFRGRRWNCTTVHDSLAIFGPVLDKATRESAFVHAIASAGVAFAVTRSCAEGTAAICGCSSRHQGSPGKGWKWGGCSEDIEFGGMVSREFADARENRPDARSAMNRHNNEAGRQAIASHMHLKCKCHGLSGSCEVKTCWWSQPDFRAIGDFLKDKYDSASEMVVEKHRESRGWVETLRPRYTYFKVPTERDLVYYEASPNFCEPNPETGSFGTRDRTCNVSSHGIDGCDLLCCGRGHNARAERRREKCRCVFHWCCYVSCQECTRVYDVHTCK
B2: R-SPONDIN1: exogenous growth factor R-spondin 1 (Peprotech) (protein, UniProt Q2MKA7 21-263, looked up)
R-spondin-1: SRGIKGKRQRRISAEGSQACAKGCELCSEVNGCLKCSPKLFILLERNDIRQVGVCLPSCPPGYFDARNPDMNKCIKCKIEHCEACFSHNFCTKCKEGLYLHKGRCYPACPEGSSAANGTMECSSPAQCEMSEWSPWGPCSKKQQLCGFRRGSEERTRRVLHAPVGDHAACSDTKETRRCTVRRVPCPEGQKRRKGGQGRRENANRNLARKESKEAGAGSRRRKGQQQQQQQGTVGPLTSAGPA
B3: NOGGIN: recombinant human NOGGIN, BMP antagonist (protein, UniProt Q13253 28-232, looked up)
Noggin: QHYLHIRPAPSDNLPLVDLIEHPDPIFDPKEKDLNETLLRSLLGGHYDPGFMATSPPEDRPGGGGGAAGGAEDLAELDQLLRQRPSGAMPSEIKGLEFSEGLAQGKKQRLSKKLRRKLQMWLWSQTFCPVLYAWNDLGSRFWPRYVKVGSCFSKRSCSVPEGMVCKPSKSVHLTVLRWRCQRRGGQRCGWIPIQYPIISECKCSC

test system: AT2 organoids; assay: AT2 organoid proliferation with niche factors and PORCUPINE inhibitor; conditions: EGF and NOGGIN together; WNT-3A and RSPONDIN-1 added exogenously
Protocol: Screening exogenous growth factors in organoid culture. Distal airway cells were isolated and plated as above with the following exceptions: ADMEM/F12 was used instead of organoid medium during elastase digestion of lung tissue, cells were serially diluted and filtered through a 40 micron cell strainer and counted with a hemocytometer. 1000 viable epithelial cells (by Trypan blue exclusion, size, and morphology) per μL ECM were plated per 5 μL Matrigel droplet per well. Base media consisted of organoid media lacking A83-01, EGF, NOGGIN, WNT3A or RSPO1. EGF (final 50 ng/ml, R&D), NOGGIN (final 100 ng/ml, R&D), WNT3A (final 100 ng/ml, R&D), RSPO1 (final 500 ng/ml, Peprotech) or the PORCUPINE inhibitor C59 (final 1μM, Biogems) were added singly or in combination to base media. Images were obtained ten days after primary plating with an inverted light microscope at 5X magnification. Each condition was plated in quadruplicate and organoid formation was quantified using the analyze particle (threshold=4902 pixels) plugin in ImageJ as previously described.

Row | Molecule | clonal AT2 organoid proliferation with exogenous growth factors
1 | B1 | did not enhance growth
2 | B2 | did not enhance growth
3 | B3 | sufficient for clonal AT2 organoid proliferation

test system: human distal lung organoids; assay: Screening exogenous growth factors in distal lung organoid culture; format: cell-based; conditions: single cell suspensions of distal lung, feeder-free; EGF and NOGGIN in combination
Source text: (§1) Screening exogenous growth factors in organoid culture.

Row | Molecule | distal lung organoid growth with exogenous growth factors
4 | B1 | without any additional growth-promoting effects
5 | B2 | without any additional growth-promoting effects
6 | B3 | optimal

test system: basal organoids; assay: Growth factor evaluation for basal organoids after sedimentation and clonogenic culture; format: cell-based, human; conditions: pure basal cell cultures; EGF and Noggin together
Source text: as §1
Density sedimentation of basal cells. Organoid cultures within 2-3 weeks of primary plating were dissociated with 1 U/ml neutral protease (Worthington, Cat LS02100) and 100 KU of DNase I in organoid media. Basal organoids were then collected by gravity sedimentation and the supernatant was either aspirated or collected for downstream use. Basal organoids were then further fractionated on a custom Ficoll-Paque gradient (4 vol Ficoll-Paque to 1 vol PBS) and centrifuged at 300×g for 10 minutes at room temperature. The supernatant was aspirated and the organoid pellet was resuspended in 10 ml PBS in a 15 ml conical tube, collected by gravity sedimentation, and plated into ECM as described above.

Row | Molecule | basal organoid growth with exogenous growth factors
7 | B1 | without additive effects
8 | B2 | without additive effects
9 | B3 | sufficient for maximal growth
